# Experimental data taken from patent US20190161525A1 (NATIONAL CHENG KUNG UNIVERSITY, published 2019).
# B1: Zfra1-31 (full-length zinc finger-like protein that regulates apoptosis, synthetic peptide) (peptide)
# peptide: MSSRRSSSCKYCEQDFRAHTQKNAATPFLAN
# notes: also called Zfra peptide; full-length Zfra
# Biological target: the molecule itself
# Experiment: self-polymerization in PBS, reducing SDS-PAGE and Western blot
protein,measurement,value
B1,binding result,binds
